Publication doi:10.1101/2024.01.22.576614
Where two headings read alike, the source gives them in different places.

How the values were obtained:
Assay in all cases: two-hybrid
[1] = molecular target: Leu zipper (Zip)
[2] = molecular target: Leu zipper (Zip); remark: listed apart in the source
[3] = molecular target: cAMP-binding transcriptional regulator Clr (Sinorhizobium meliloti)

Leu zipper (Zip), sequence (P03069 whole entry): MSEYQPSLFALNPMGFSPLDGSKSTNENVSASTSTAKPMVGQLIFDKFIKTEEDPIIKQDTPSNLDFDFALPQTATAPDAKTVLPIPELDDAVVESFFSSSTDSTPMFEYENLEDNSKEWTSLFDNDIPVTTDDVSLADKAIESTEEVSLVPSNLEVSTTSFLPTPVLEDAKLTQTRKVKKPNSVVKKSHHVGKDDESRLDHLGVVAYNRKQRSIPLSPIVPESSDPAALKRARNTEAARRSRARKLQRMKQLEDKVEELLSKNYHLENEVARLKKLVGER

Substance	BACTH β-galactosidase activity [1]	BACTH β-galactosidase activity [2]	BACTH β-galactosidase activity [3]
Leu zipper (Zip) (domain or fragment)	1640 Miller-Units	1370 Miller-Units	
LysR-type transcriptional regulator Smc01817 (natural protein)			460 MU
